Test results published in the Immune Epitope Database (IEDB).

Legend:
[1] = molecular target: HLA-B*40:01; assay: IEDB peptide-MHC binding, purified MHC/competitive/radioactivity; ≥ and ≤ were set here for values at or beyond the usual limits of such assays; settings: source organism: Mammarenavirus guanaritoense
[2] = molecular target: HLA-B*40:02; assay: as above; settings: source organism: Mammarenavirus guanaritoense
[3] = molecular target: HLA-B*45:01; assay: IEDB peptide-MHC binding, cellular MHC/competitive/fluorescence; ≥ and ≤ were set here for values at or beyond the usual limits of such assays; settings: source organism: Mammarenavirus guanaritoense
[4] = molecular target: HLA-B*18:01; assay: as above; settings: source organism: Mammarenavirus guanaritoense
[5] = molecular target: HLA-B*44:03; assay: as above; settings: source organism: Mammarenavirus guanaritoense
[6] = molecular target: HLA-B*44:02; assay: as above; settings: source organism: Mammarenavirus guanaritoense
[7] = molecular target: HLA-A*31:01; assay: IEDB peptide-MHC binding, purified MHC/competitive/radioactivity; ≥ and ≤ were set here for values at or beyond the usual limits of such assays
[8] = molecular target: HLA-A*33:01; assay: as above
[9] = molecular target: HLA-A*11:01; assay: as above; settings: source organism: Mammarenavirus lassaense
[10] = molecular target: HLA-A*68:01; assay: IEDB peptide-MHC binding, cellular MHC/competitive/fluorescence; ≥ and ≤ were set here for values at or beyond the usual limits of such assays
[11] = molecular target: HLA-B*27:05; assay: IEDB peptide-MHC binding, purified MHC/competitive/radioactivity; ≥ and ≤ were set here for values at or beyond the usual limits of such assays; settings: source organism: Mammarenavirus choriomeningitidis
[12] = molecular target: HLA-A*02:01; assay: as above; settings: source organism: Vaccinia virus WR
[13] = molecular target: HLA-A*68:01; assay: as above
[14] = molecular target: HLA-A*03:01; assay: as above
[15] = molecular target: HLA-A*33:01; assay: IEDB peptide-MHC binding, cellular MHC/competitive/fluorescence; ≥ and ≤ were set here for values at or beyond the usual limits of such assays
[16] = molecular target: HLA-A*11:01; assay: as above
[17] = molecular target: HLA-B*35:01; assay: IEDB peptide-MHC binding, purified MHC/competitive/radioactivity; ≥ and ≤ were set here for values at or beyond the usual limits of such assays
[18] = molecular target: HLA-B*53:01; assay: as above
[19] = molecular target: HLA-B*54:01; assay: as above
[20] = molecular target: HLA-B*07:02; assay: IEDB peptide-MHC binding, cellular MHC/competitive/fluorescence; ≥ and ≤ were set here for values at or beyond the usual limits of such assays
[21] = molecular target: HLA-B*51:01; assay: as above
[22] = molecular target: HLA-A*02:02; assay: IEDB peptide-MHC binding, purified MHC/competitive/radioactivity; ≥ and ≤ were set here for values at or beyond the usual limits of such assays; settings: source organism: Vaccinia virus WR
[23] = molecular target: HLA-A*02:06; assay: as above; settings: source organism: Vaccinia virus WR
[24] = molecular target: HLA-A*26:01; assay: as above; settings: source organism: Vaccinia virus WR
[25] = molecular target: HLA-A*02:03; assay: as above; settings: source organism: Vaccinia virus WR
[26] = molecular target: HLA-A*30:02; assay: as above; settings: source organism: Vaccinia virus WR
[27] = molecular target: HLA-A*01:01; assay: IEDB peptide-MHC binding, cellular MHC/competitive/fluorescence; ≥ and ≤ were set here for values at or beyond the usual limits of such assays; settings: source organism: Vaccinia virus WR
[28] = molecular target: HLA-A*02:01; assay: as above; settings: source organism: Vaccinia virus WR
[29] = molecular target: HLA-A*23:01; assay: as above; settings: source organism: Vaccinia virus WR
[30] = molecular target: HLA-A*68:02; assay: as above; settings: source organism: Vaccinia virus WR
[31] = molecular target: HLA-A*29:02; assay: as above; settings: source organism: Vaccinia virus WR
[32] = molecular target: HLA-A*24:02; assay: as above; settings: source organism: Vaccinia virus WR
[33] = molecular target: HLA-A*01:01; assay: IEDB peptide-MHC binding, purified MHC/competitive/radioactivity; ≥ and ≤ were set here for values at or beyond the usual limits of such assays; settings: source organism: Vaccinia virus WR
[34] = molecular target: HLA-A*23:01; assay: as above; settings: source organism: Vaccinia virus WR
[35] = molecular target: HLA-A*68:02; assay: as above; settings: source organism: Vaccinia virus WR
[36] = molecular target: HLA-A*29:02; assay: as above; settings: source organism: Vaccinia virus WR
[37] = molecular target: HLA-A*31:01; assay: IEDB peptide-MHC binding, cellular MHC/competitive/fluorescence; ≥ and ≤ were set here for values at or beyond the usual limits of such assays
[38] = molecular target: HLA-A*03:01; assay: as above; settings: source organism: Mammarenavirus choriomeningitidis
[39] = source organism: Mammarenavirus lassaense
[40] = source organism: Vaccinia virus WR
[41] = source organism: Mammarenavirus machupoense
[42] = source organism: Mammarenavirus choriomeningitidis
[43] = source organism: Mammarenavirus guanaritoense

ADKNLIKCS
IC50 [1]: 0.316 µM | IC50 [2]: 0.102 µM | IC50 [3]: ≥ 70 µM | IC50 [4]: ≥ 70 µM | IC50 [5]: ≥ 70 µM | IC50 [6]: ≥ 70 µM

ALMSIISTFH
IC50 [7, 39]: 3.68 µM | IC50 [8, 39]: 3.61 µM | IC50 [9]: 0.618 µM | IC50 [10, 39]: 23.8 µM

IIVLIIITSI
IC50 [11]: 1.88 µM

LLTACTIFYI
IC50 [7, 40]: 0.627 µM | IC50 [12]: 0.0057 µM | IC50 [13, 40]: 4.37 µM | IC50 [14, 40]: 0.829 µM | IC50 [15, 40]: 7.39 µM | IC50 [16, 40]: 18.8 µM

MCISLSTAI
IC50 [17, 39]: 0.211 µM | IC50 [18, 39]: 1.43 µM | IC50 [19, 39]: 0.192 µM | IC50 [20, 39]: 24 µM | IC50 [21, 39]: 6.76 µM

MLNNSFYYM
IC50 [17, 41]: 0.501 µM | IC50 [18, 41]: 0.851 µM | IC50 [19, 41]: 4.96 µM | IC50 [20, 41]: 29.7 µM | IC50 [21, 41]: 6.95 µM

NQGNILMDSI
IC50 [22]: 3.94 µM | IC50 [23]: 3.09 µM | IC50 [24]: 2.78 µM | IC50 [25]: 4.04 µM | IC50 [26]: 3.95 µM | IC50 [27]: 24 µM | IC50 [28]: 9.85 µM | IC50 [29]: ≥ 70 µM | IC50 [30]: 27.8 µM | IC50 [31]: 7.49 µM | IC50 [32]: 67.2 µM

SQIFNIISYI
IC50 [22]: 0.062 µM | IC50 [33]: 0.801 µM | IC50 [23]: 0.023 µM | IC50 [12]: 0.111 µM | IC50 [24]: 0.397 µM | IC50 [25]: 0.181 µM | IC50 [34]: 2.38 µM | IC50 [35]: 0.048 µM | IC50 [26]: 0.671 µM | IC50 [36]: 1.15 µM | IC50 [32]: 9.51 µM

TLMSIVSSLH
IC50 [14, 42]: 3.95 µM | IC50 [37, 42]: 11.4 µM | IC50 [10, 42]: 6.62 µM | IC50 [15, 42]: ≥ 70 µM | IC50 [16, 42]: 9.54 µM

TSAYLISIFL
IC50 [13, 42]: 1.15 µM | IC50 [8, 42]: 2.18 µM | IC50 [37, 42]: 3.1 µM | IC50 [38]: 9.21 µM | IC50 [16, 42]: ≥ 70 µM

TSFYLISIFL
IC50 [13, 39]: 1.91 µM | IC50 [37, 39]: ≥ 70 µM | IC50 [15, 39]: 31.1 µM | IC50 [16, 39]: 8.09 µM

TTSLFLHLV
IC50 [7, 43]: 0.726 µM | IC50 [8, 43]: 2.27 µM | IC50 [10, 43]: 11.1 µM | IC50 [16, 43]: 15.4 µM
